{
  "source": "patent US20140178373A1",
  "about": "(TORAY INDUSTRIES, published 2014)",
  "binders": {"B1": {"name": "human-mouse chimeric comparative antibody 7 (antibody, human IgG1, kappa, V domains shown)", "VH": "LQESGAELARPGASVKLSCKASGYTFTSYWMQWVKQRPGQGLEWIGAIYPGDGDTRYTQKFKGKATLTADKSSSTAYMQLSSLASEDSAVYYCARGEYGNYFAYWGQGTTVTVSS", "VL": "TSDASLGERVTITCKASQDINSYLSWFQQKPGKSPKTLIYRANRLVDGVPSRFSGSGSGQDYSLTISSLEYEDMGIYYCLQYDEFPLTFGGGTKLEIKQ"}, "B2": {"name": "human-mouse chimeric comparative antibody 1 (antibody)", "heavy": "not shown", "light": "DIQMTQSPASLSASVGETVTITCRASGNIHNYLAWYQQKQGKSPQLLVYNAKTLADGVPSRFSGSGSGTQYSLKINSLQPEDFGSYYCQHFWSTLTFGAGTKLELKRTVAAPSVFIFPPSDEQLKSGTASVVCLLNNFYPREAKVQWKVDNALQSGNSQESVTEQDSKDSTYSLSSTLTLSKADYEKHKVYACEVTHQGLSSPVTKSFNRGEC"}, "B3": {"name": "human-mouse chimeric comparative antibody 3 (antibody)", "heavy": "not shown", "light": "DIQLTQSPASLSASVGETVTITCRASGNIHNYLAWYQQKQGKSPQLLVYNAKTLADGVPSRFSGSGSGTQYSLKINSLQPEDFGSYYCQHFWSTLTFGGGTKLEIKQTVAAPSVFIFPPSDEQLKSGTASVVCLLNNFYPREAKVQWKVDNALQSGNSQESVTEQDSKDSTYSLSSTLTLSKADYEKHKVYACEVTHQGLSSPVTKSFNRGEC"}, "B4": {"name": "human-mouse chimeric comparative antibody 4 (antibody, human IgG1, kappa, V domains shown)", "VH": "EVQLHQFGAELVKPGASVKISCKASGYTFTDYNMDWVKQSHGKSLEWIGDINPNYDSTSYNQKFKGKATLTVDKSSSTAYMELRSLTSEDTAVYYCARSRSYDYEGFAYWGQGTLVTVSA", "VL": "SGDRVSLSCRASQSISNYLHWYQQKSHESPRLLIKYASQSISGIPSRFSGSGSGTDFTLSINSVETEDFGMYFCQQSNSWPYTFGAGTKLEIKQ"}},
  "molecular_target": "T1, CAPRIN-1 protein on the cell membrane surface of human cancer cell lines (human, UniProt Q14444 2-709)",
  "T1 sequence (looked up)": "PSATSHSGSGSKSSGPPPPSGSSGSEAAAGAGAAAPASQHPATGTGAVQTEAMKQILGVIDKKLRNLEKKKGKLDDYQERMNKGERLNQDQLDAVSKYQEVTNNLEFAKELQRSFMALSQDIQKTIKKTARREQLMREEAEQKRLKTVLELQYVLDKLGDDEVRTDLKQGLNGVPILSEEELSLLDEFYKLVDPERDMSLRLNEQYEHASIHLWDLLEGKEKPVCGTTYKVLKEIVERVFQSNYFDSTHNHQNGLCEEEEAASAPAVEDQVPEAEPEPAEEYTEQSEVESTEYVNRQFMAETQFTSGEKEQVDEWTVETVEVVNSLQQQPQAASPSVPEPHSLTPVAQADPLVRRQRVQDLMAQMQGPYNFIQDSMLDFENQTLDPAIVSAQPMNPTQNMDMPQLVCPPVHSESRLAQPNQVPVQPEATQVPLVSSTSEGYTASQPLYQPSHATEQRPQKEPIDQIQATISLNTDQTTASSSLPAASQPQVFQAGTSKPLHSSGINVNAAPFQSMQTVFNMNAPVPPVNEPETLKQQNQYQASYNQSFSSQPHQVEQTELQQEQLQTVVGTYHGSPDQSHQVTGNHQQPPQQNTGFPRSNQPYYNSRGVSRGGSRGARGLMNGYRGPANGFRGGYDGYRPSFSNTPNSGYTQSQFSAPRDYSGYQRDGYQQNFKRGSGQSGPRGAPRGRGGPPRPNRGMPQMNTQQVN",
  "assay": "cell-based or functional assay",
  "data": [
    {"binder": "B1", "values": [
      {"measurement": "cytotoxic activity (ADCC) against MCF7, HCT-116, MIAPaCa-2, Caki-2 and QG56", "result": "< 5", "unit": "%"},
      {"measurement": "cytotoxic activity (ADCC) against all other cancer cells (19 further cell lines)", "result": "< 4", "unit": "%"}
    ]},
    {"binder": "B2", "values": [
      {"measurement": "cytotoxic activity (ADCC) against MCF7, HCT-116, MIAPaCa-2, Caki-2 and QG56", "result": "< 5", "unit": "%"},
      {"measurement": "cytotoxic activity (ADCC) against all other cancer cells (19 further cell lines)", "result": "< 4", "unit": "%"}
    ]},
    {"binder": "B3", "values": [
      {"measurement": "cytotoxic activity (ADCC) against MCF7, HCT-116, MIAPaCa-2, Caki-2 and QG56", "result": "< 5", "unit": "%"},
      {"measurement": "cytotoxic activity (ADCC) against all other cancer cells (19 further cell lines)", "result": "< 4", "unit": "%"}
    ]},
    {"binder": "B4", "values": [
      {"measurement": "cytotoxic activity (ADCC) against MCF7, HCT-116, MIAPaCa-2, Caki-2 and QG56", "result": "< 5", "unit": "%"},
      {"measurement": "cytotoxic activity (ADCC) against all other cancer cells (19 further cell lines)", "result": "< 4", "unit": "%"}
    ]}
  ]
}
